Reference: patent US20200087373A1 (UNIVERSITY OF COPENHAGEN, published 2020)
Ends that are not written are not given here. * marks the point of attachment. C16 diacid = O=C(O)CCCCCCCCCCCCCCC(=O)*

B1: AT169 [hGIP(5-30)NH2[I7K]-C16diacid/7] (peptide)
peptide: TFK(C16 diacid)SDYSIAMDKIHQQDFVNWLLAQK-NH2
modifications: N-terminus assumed
SMILES: CC[C@H](C)[C@H](NC(=O)[C@H](CO)NC(=O)[C@H](Cc1ccc(O)cc1)NC(=O)[C@H](CC(=O)O)NC(=O)[C@H](CO)NC(=O)[C@H](CCCCNC(=O)CCCCCCCCCCCCCCC(=O)O)NC(=O)[C@H](Cc1ccccc1)NC(=O)[C@@H](N)[C@@H](C)O)C(=O)N[C@@H](C)C(=O)N[C@@H](CCSC)C(=O)N[C@@H](CC(=O)O)C(=O)N[C@@H](CCCCN)C(=O)N[C@H](C(=O)N[C@@H](Cc1c[nH]cn1)C(=O)N[C@@H](CCC(N)=O)C(=O)N[C@@H](CCC(N)=O)C(=O)N[C@@H](CC(=O)O)C(=O)N[C@@H](Cc1ccccc1)C(=O)N[C@H](C(=O)N[C@@H](CC(N)=O)C(=O)N[C@@H](Cc1c[nH]c2ccccc12)C(=O)N[C@@H](CC(C)C)C(=O)N[C@@H](CC(C)C)C(=O)N[C@@H](C)C(=O)N[C@@H](CCC(N)=O)C(=O)N[C@@H](CCCCN)C(N)=O)C(C)C)[C@@H](C)CC
B2: AT171 [hGIP(5-30)NH2[D9K]-C16diacid/9] (peptide)
peptide: TFISK(C16 diacid)YSIAMDKIHQQDFVNWLLAQK-NH2
modifications: N-terminus assumed
SMILES: CC[C@H](C)[C@H](NC(=O)[C@H](CO)NC(=O)[C@H](Cc1ccc(O)cc1)NC(=O)[C@H](CCCCNC(=O)CCCCCCCCCCCCCCC(=O)O)NC(=O)[C@H](CO)NC(=O)[C@@H](NC(=O)[C@H](Cc1ccccc1)NC(=O)[C@@H](N)[C@@H](C)O)[C@@H](C)CC)C(=O)N[C@@H](C)C(=O)N[C@@H](CCSC)C(=O)N[C@@H](CC(=O)O)C(=O)N[C@@H](CCCCN)C(=O)N[C@H](C(=O)N[C@@H](Cc1c[nH]cn1)C(=O)N[C@@H](CCC(N)=O)C(=O)N[C@@H](CCC(N)=O)C(=O)N[C@@H](CC(=O)O)C(=O)N[C@@H](Cc1ccccc1)C(=O)N[C@H](C(=O)N[C@@H](CC(N)=O)C(=O)N[C@@H](Cc1c[nH]c2ccccc12)C(=O)N[C@@H](CC(C)C)C(=O)N[C@@H](CC(C)C)C(=O)N[C@@H](C)C(=O)N[C@@H](CCC(N)=O)C(=O)N[C@@H](CCCCN)C(N)=O)C(C)C)[C@@H](C)CC
B3: AT173 [hGIP(5-30)NH2[S11K]-C16diacid/11] (peptide)
peptide: TFISDYK(C16 diacid)IAMDKIHQQDFVNWLLAQK-NH2
modifications: N-terminus assumed
SMILES: CC[C@H](C)[C@H](NC(=O)[C@H](CCCCNC(=O)CCCCCCCCCCCCCCC(=O)O)NC(=O)[C@H](Cc1ccc(O)cc1)NC(=O)[C@H](CC(=O)O)NC(=O)[C@H](CO)NC(=O)[C@@H](NC(=O)[C@H](Cc1ccccc1)NC(=O)[C@@H](N)[C@@H](C)O)[C@@H](C)CC)C(=O)N[C@@H](C)C(=O)N[C@@H](CCSC)C(=O)N[C@@H](CC(=O)O)C(=O)N[C@@H](CCCCN)C(=O)N[C@H](C(=O)N[C@@H](Cc1c[nH]cn1)C(=O)N[C@@H](CCC(N)=O)C(=O)N[C@@H](CCC(N)=O)C(=O)N[C@@H](CC(=O)O)C(=O)N[C@@H](Cc1ccccc1)C(=O)N[C@H](C(=O)N[C@@H](CC(N)=O)C(=O)N[C@@H](Cc1c[nH]c2ccccc12)C(=O)N[C@@H](CC(C)C)C(=O)N[C@@H](CC(C)C)C(=O)N[C@@H](C)C(=O)N[C@@H](CCC(N)=O)C(=O)N[C@@H](CCCCN)C(N)=O)C(C)C)[C@@H](C)CC

Each binder was assayed against T1, human serum albumin (human, UniProt P02768 25-609) (assay: 125I-human GIP competition binding on hGIPR COS-7 cells with and without 2% HSA; fold change of IC50 taken as HSA binding).
T1 construct: also called HSA; human albumin
T1 sequence (P02768 25-609 limits assumed): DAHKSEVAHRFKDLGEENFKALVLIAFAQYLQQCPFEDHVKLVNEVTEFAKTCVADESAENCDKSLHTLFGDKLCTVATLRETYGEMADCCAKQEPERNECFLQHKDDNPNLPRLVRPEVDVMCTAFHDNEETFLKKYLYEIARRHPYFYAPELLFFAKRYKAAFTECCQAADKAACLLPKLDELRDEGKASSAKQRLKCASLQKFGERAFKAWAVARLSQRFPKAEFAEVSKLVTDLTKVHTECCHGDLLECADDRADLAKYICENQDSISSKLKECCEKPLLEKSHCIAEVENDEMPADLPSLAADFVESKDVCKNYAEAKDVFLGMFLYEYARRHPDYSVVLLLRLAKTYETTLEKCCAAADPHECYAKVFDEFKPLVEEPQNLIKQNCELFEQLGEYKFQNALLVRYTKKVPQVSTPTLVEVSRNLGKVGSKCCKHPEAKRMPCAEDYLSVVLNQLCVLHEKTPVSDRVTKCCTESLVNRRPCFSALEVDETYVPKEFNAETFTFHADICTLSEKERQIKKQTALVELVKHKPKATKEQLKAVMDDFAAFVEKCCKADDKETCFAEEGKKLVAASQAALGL
Method: After incubation, the cells were washed twice in ice-cold binding buffer (+/−2% HSA) and lysed using 200 mM NaOH with 1% SDS for 30 min. Nonspecific binding was determined as the binding of radioactive ligand to untransfected cells.
B1: binds.
B2: binds.
B3: binds.
